Values quoted from earlier work, collected in publication PMC4489983.
pKd: −log10 of the molar value.

Experiments:
NIPP1 (Homo sapiens) = NIPP1 (Homo sapiens) (UniProt Q12972)
[1] = biological target: spinophilin (Homo sapiens) (UniProt Q96SB3)
PNUTS (Homo sapiens) = PNUTS (Homo sapiens) (UniProt Q96QC0)
Sequence of PNUTS (Homo sapiens) (Q96QC0 whole entry): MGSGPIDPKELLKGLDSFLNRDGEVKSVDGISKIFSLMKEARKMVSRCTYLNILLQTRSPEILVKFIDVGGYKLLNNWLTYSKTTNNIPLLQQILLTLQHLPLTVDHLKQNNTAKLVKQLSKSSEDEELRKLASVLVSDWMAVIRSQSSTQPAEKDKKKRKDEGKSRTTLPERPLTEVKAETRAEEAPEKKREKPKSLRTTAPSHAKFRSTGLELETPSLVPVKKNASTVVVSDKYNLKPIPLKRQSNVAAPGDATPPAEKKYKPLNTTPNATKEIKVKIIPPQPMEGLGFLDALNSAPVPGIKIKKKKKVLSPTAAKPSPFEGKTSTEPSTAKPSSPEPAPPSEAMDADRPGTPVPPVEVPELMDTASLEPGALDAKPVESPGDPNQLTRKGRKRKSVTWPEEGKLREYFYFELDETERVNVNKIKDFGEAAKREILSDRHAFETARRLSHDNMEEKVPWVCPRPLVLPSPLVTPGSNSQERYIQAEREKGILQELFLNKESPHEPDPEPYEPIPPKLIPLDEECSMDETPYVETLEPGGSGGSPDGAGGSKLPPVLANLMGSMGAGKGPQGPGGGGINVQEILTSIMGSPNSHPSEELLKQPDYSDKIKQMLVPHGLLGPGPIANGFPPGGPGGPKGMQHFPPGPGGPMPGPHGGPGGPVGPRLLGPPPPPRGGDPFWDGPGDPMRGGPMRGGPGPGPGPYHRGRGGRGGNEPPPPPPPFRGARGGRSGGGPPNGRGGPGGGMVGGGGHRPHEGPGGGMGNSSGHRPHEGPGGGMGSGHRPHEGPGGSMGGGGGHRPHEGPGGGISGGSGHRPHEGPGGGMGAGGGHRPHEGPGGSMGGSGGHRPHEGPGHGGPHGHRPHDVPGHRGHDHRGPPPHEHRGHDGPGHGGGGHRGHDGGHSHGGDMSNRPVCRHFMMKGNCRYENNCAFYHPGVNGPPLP

Sequence of PP1α (P62136 2-330): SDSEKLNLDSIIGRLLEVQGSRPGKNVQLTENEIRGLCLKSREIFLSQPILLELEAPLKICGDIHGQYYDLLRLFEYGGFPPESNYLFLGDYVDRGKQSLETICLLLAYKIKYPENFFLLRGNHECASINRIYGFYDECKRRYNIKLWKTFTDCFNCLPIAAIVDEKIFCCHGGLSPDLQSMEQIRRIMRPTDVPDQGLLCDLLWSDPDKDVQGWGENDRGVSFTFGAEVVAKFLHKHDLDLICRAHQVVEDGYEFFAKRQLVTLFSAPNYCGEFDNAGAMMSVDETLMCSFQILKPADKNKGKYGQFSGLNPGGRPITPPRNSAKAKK
Sequence of spinophilin (Homo sapiens) (Q96SB3 whole entry): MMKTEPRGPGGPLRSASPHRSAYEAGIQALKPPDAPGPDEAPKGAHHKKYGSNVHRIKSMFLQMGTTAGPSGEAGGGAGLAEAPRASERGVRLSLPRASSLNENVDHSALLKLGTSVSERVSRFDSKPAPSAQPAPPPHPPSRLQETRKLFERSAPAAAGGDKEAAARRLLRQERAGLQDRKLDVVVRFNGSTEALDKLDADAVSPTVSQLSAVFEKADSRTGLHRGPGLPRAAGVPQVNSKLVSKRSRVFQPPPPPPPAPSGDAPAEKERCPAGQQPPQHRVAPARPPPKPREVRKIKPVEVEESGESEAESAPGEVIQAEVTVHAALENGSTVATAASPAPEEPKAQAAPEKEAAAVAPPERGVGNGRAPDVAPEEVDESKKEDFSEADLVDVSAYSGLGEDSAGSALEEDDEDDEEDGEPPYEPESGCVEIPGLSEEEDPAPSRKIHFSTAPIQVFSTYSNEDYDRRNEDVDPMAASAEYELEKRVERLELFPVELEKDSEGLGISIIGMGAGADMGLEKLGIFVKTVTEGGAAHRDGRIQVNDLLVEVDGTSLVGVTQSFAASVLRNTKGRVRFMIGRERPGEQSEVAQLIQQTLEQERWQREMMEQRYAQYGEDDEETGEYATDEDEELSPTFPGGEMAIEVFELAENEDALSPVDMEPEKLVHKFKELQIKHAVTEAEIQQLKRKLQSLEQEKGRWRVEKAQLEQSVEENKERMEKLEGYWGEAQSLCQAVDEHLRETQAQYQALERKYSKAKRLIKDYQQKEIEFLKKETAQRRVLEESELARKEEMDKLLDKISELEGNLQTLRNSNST
Sequence of NIPP1 (Homo sapiens) (Q12972 whole entry): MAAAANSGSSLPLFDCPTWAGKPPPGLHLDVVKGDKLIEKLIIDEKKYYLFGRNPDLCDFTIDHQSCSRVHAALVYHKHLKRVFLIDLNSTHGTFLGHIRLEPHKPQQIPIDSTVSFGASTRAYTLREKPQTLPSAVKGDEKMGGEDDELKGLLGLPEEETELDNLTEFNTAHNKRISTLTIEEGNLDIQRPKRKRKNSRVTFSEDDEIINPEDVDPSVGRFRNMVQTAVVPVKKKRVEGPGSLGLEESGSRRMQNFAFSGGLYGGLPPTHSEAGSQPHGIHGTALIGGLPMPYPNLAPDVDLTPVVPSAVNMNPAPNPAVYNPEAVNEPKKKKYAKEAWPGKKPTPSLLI

Substance: PP1α (from UniProt P62136)
- pKd (NIPP1 (Homo sapiens)): 7.14
- pKd [1]: 8.03
- pKd (PNUTS (Homo sapiens)): 8.06
